Test results taken from patent US20260250420A1 (SICHUAN KELUN BIOTECH BIOPHARMACEUTICAL, published 2026).

T1: human PTK7 on cells (tumor cells endogenously expressing PTK7); CHO-hPTK7, CHO-S-hPTK7 and 293T-hPTK7 … (human, UniProt Q13308 31-1070)
T1 sequence (looked up): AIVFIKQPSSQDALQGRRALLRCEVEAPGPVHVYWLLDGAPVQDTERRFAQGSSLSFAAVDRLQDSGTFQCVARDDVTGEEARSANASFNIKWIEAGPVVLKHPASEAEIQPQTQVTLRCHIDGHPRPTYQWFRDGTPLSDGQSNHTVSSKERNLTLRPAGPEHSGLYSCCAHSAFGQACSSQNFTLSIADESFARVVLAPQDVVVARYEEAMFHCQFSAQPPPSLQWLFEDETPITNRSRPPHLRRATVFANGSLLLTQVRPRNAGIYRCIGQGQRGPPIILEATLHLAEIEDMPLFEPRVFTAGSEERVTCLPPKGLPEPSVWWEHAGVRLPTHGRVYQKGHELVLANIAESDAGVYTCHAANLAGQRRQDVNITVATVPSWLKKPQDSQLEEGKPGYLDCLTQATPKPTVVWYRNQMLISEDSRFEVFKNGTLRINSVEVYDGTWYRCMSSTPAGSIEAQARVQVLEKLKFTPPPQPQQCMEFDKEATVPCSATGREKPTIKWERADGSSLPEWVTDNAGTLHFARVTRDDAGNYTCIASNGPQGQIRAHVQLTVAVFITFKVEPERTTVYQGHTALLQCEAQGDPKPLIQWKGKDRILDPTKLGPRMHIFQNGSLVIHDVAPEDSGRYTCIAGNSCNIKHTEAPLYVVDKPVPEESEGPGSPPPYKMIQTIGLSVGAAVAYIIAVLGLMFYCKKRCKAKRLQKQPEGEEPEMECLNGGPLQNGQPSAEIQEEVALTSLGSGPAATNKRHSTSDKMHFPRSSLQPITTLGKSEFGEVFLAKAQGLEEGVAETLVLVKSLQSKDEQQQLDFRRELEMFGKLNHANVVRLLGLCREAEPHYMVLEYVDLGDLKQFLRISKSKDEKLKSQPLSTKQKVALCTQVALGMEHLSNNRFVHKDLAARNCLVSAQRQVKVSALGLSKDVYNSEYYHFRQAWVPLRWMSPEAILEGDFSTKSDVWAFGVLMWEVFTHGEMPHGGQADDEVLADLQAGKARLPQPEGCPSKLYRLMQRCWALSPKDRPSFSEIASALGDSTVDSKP

T2: monkey PTK7 protein (extracellular sequence of monkey PTK7 with C-terminal 6×His tag) (monkey)
T2 chain: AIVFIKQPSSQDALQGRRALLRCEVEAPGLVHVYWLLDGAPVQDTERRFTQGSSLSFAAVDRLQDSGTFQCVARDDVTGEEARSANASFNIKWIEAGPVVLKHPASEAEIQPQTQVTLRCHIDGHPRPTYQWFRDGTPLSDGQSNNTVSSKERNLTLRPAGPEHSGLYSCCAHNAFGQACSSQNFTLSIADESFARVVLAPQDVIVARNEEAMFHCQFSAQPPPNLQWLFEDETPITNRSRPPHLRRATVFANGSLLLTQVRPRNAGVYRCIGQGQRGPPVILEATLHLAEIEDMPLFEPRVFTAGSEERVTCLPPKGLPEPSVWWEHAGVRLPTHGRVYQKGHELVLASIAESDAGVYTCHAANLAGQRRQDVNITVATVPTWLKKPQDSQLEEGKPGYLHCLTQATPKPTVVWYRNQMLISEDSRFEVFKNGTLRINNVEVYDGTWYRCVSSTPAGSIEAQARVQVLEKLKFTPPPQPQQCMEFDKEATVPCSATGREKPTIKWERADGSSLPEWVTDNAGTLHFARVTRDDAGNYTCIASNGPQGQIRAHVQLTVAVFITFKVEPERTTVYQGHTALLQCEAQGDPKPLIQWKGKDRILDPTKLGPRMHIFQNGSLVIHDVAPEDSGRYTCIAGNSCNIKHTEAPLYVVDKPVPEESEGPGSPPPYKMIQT

T3: human PTK7 protein (extracellular sequence of human PTK7 with C-terminal 6×His tag) (human, UniProt Q13308 31-704)
T3 construct: extracellular domain; Expressed transiently in HEK293 cells; also called human PTK7-His; human PTK7-His protein
T3 sequence: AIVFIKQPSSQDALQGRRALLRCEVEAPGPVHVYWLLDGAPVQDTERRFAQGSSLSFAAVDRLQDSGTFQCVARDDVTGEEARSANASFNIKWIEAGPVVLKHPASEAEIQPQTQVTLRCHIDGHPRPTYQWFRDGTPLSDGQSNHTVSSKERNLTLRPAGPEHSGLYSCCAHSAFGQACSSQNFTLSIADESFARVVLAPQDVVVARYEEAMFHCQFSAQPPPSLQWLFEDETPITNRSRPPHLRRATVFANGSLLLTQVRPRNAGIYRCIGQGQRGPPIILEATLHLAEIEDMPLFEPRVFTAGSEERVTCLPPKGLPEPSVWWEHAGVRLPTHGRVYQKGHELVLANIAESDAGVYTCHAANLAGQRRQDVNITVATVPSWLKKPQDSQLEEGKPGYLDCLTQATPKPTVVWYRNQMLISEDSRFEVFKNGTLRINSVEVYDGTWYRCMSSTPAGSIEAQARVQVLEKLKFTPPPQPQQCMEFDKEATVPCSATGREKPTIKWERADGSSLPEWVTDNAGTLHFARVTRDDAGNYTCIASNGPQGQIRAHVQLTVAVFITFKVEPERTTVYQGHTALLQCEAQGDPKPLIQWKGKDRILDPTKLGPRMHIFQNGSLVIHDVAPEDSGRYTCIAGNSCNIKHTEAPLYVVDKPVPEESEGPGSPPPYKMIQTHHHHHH


Assays:
[1] = molecular target: T1, human PTK7 on cells (tumor cells …); experiment: cell-based or functional assay
[2] = molecular target: T2, monkey PTK7 protein (extracellular …); experiment: ELISA, coated monkey PTK7 protein
[3] = molecular target: T3, human PTK7 protein (extracellular …); experiment: BLI (ForteBio), antibody on Protein A sensor, human PTK7-His 200-3.125 nM, 1:1 global fit
Text: The dynamic affinity of the control Hu24 and candidate antibodies 64A10HZ, 101A6HZ, 4E12HZ and 19C2HZ with human PTK7-His was detected by using ForteBio (Pall life sciences).

| FADU cell endocytosis activity, EC50 [1] [µg/mL] | EC50 [2] [µg/mL] | Kd [3] [nM] | koff [3] [s⁻¹] | kon [3] [M⁻¹ s⁻¹] | Binder |
| --- | --- | --- | --- | --- | --- |
| 0.18 | 0.134 | 4.96 | 0.00105 | 211000 | Hu24 (PTK7 control antibody, taken from Hu24 in the Patent CN201580030255) (antibody) chain 1: QVQLVQSGPEVKKPGASVKVSCKASGYTFTDYAVHWVRQAPGKRLEWIGVISTYNDYTYNNQDFKGRVTMTRDTSASTAYMELSRLRSEDTAVYYCARGNSYFYALDYWGQGTSVTVSS chain 2: EIVLTQSPATLSLSPGERATLSCRASESVDSYGKSFMHWYQQKPGQAPRLLIYRASNLESGIPARFSGSGSGTDFTLTISSLEPEDFAVYYCQQSNEDPWTFGGGTKLEIK |
| 0.147 | 0.0201 | 10.9 | 0.00278 | 255000 | 64A10HZ (anti-human PTK7 humanized antibody) (antibody, human IgG1, kappa, V domains shown, Human IgG1 heavy chain constant region and human Kappa light chain constant region; expressed in CHO-S cells) VH: QVQLQESGPGLVKPSETLSLTCTVSGFSLTSYGVYWVRQPPGKGPEWLGVIWTSGNTNYNPSLKSRLTISKDNSKNQVSLKLSSVTAADTAVYYCVKHDGGNYVGVMNYWGQGTLVTVSS VL: EIVMTQSPDFQSVTPKEKVTITCRASQSISDYLHWYQQKPDQSPKLLIKYASQSISGVPSRFSGSGSGSDFTLTINSLEAEDAATYYCQNGHSFPPTFGQGTKLEIKR |
| 0.115 | 1.23 | 42.4 | 0.00566 | 134000 | 101A6HZ (anti-human PTK7 humanized antibody) (antibody, human IgG1, kappa) heavy: not shown light: DIVMTQSPDSLAVSLGERATINCKASQDVGSAVIWYQQKPGQSPKLLIYWASTRHTGVPDRFSGSGSGTDFTLTISSLQAEDVAVYYCQQYSSYPLTFGQGTKLEIKRTVAAPSVFIFPPSDEQLKSGTASVVCLLNNFYPREAKVQWKVDNALQSGNSQESVTEQDSKDSTYSLSSTLTLSKADYEKHKVYACEVTHQGLSSPVTKSFNRGEC |
